{"source": "paper PMC4546058", "key": {"[1]": {"target": "Str enolase 137/363–1 (ΔK435) (Streptococcus pyogenes) (UniProt P69949)"}, "[2]": {"target": "Str enolase 137/363–1 (ΔK435) (Streptococcus pyogenes) (UniProt P69949)", "experiment": "AUC; sedimentation velocity, Beckman XL-I, 20°C, 30 000-37 000 RPM, TME-SO4 (50 mM Tris, 1 mM MgSO4, 0.1 mM EDTA, 44 mN H2SO4, pH 7.4); c(s) in Sedfit; octamer to 8 monomers"}, "[3]": {"target": "Str enolase 137/363–2 (ΔK434-K435) (Streptococcus pyogenes) (UniProt P69949)"}, "[4]": {"target": "Str enolase 137/363–2 (ΔK434-K435) (Streptococcus pyogenes) (UniProt P69949)", "experiment": "AUC; sedimentation velocity, Beckman XL-I, 20°C, 30 000-37 000 RPM, TME-SO4 (50 mM Tris, 1 mM MgSO4, 0.1 mM EDTA, 44 mN H2SO4, pH 7.4); c(s) in Sedfit; octamer to 8 monomers"}, "[5]": {"target": "Str enolase 137/363–3 (ΔL433-K435) (Streptococcus pyogenes) (UniProt P69949)"}, "[6]": {"target": "Str enolase 137/363–3 (ΔL433-K435) (Streptococcus pyogenes) (UniProt P69949)", "experiment": "AUC; sedimentation velocity, Beckman XL-I, 20°C, 30 000-37 000 RPM, TME-SO4 (50 mM Tris, 1 mM MgSO4, 0.1 mM EDTA, 44 mN H2SO4, pH 7.4); c(s) in Sedfit; octamer to 8 monomers"}, "[7]": {"target": "Str enolase 137/363–4 (ΔN432-K435) (Streptococcus pyogenes) (UniProt P69949)"}, "[8]": {"target": "Str enolase 137/363–4 (ΔN432-K435) (Streptococcus pyogenes) (UniProt P69949)", "experiment": "AUC; sedimentation velocity, Beckman XL-I, 20°C, 30 000-37 000 RPM, TME-SO4 (50 mM Tris, 1 mM MgSO4, 0.1 mM EDTA, 44 mN H2SO4, pH 7.4); c(s) in Sedfit; octamer to 8 monomers"}, "[9]": {"target": "Str enolase 137/363–5 (ΔY431-K435) (Streptococcus pyogenes) (UniProt P69949)"}, "[10]": {"target": "Str enolase 137/363–5 (ΔY431-K435) (Streptococcus pyogenes) (UniProt P69949)", "experiment": "AUC; sedimentation velocity, Beckman XL-I, 20°C, 30 000-37 000 RPM, TME-SO4 (50 mM Tris, 1 mM MgSO4, 0.1 mM EDTA, 44 mN H2SO4, pH 7.4); c(s) in Sedfit; octamer to 8 monomers"}, "[11]": {"target": "Str enolase 137/363–6 (ΔF430-K435) (Streptococcus pyogenes) (UniProt P69949)"}, "[12]": {"target": "Str enolase 137/363–6 (ΔF430-K435) (Streptococcus pyogenes) (UniProt P69949)", "remark": "listed apart in the source"}, "[13]": {"target": "Str enolase 137/363–8 (ΔK428-K435) (Streptococcus pyogenes) (UniProt P69949)"}, "[14]": {"target": "Str enolase 137/363–8 (ΔK428-K435) (Streptococcus pyogenes) (UniProt P69949)", "remark": "listed apart in the source"}, "[15]": {"target": "Str enolase DB E363G (Streptococcus pyogenes) (UniProt P69949)"}, "[16]": {"target": "Str enolase DB E363G (Streptococcus pyogenes) (UniProt P69949)", "experiment": "AUC; sedimentation velocity, Beckman XL-I, 20°C, 30 000-37 000 RPM, TME-SO4 (50 mM Tris, 1 mM MgSO4, 0.1 mM EDTA, 44 mN H2SO4, pH 7.4); c(s) in Sedfit; octamer to 8 monomers"}, "[17]": {"target": "Str enolase DB F137L (Streptococcus pyogenes) (UniProt P69949)"}, "[18]": {"target": "Str enolase DB F137L (Streptococcus pyogenes) (UniProt P69949)", "experiment": "AUC; sedimentation velocity, Beckman XL-I, 20°C, 30 000-37 000 RPM, TME-SO4 (50 mM Tris, 1 mM MgSO4, 0.1 mM EDTA, 44 mN H2SO4, pH 7.4); c(s) in Sedfit; octamer to 8 monomers"}, "[19]": {"target": "enolase from Streptococcus pyogenes F137L/E363G (Streptococcus pyogenes) (UniProt P69949)"}, "[20]": {"target": "enolase from Streptococcus pyogenes F137L/E363G (Streptococcus pyogenes) (UniProt P69949)", "experiment": "AUC; sedimentation velocity, Beckman XL-I, 20°C, 30 000-37 000 RPM, TME-SO4 (50 mM Tris, 1 mM MgSO4, 0.1 mM EDTA, 44 mN H2SO4, pH 7.4); c(s) in Sedfit; octamer to 8 monomers"}}, "data": [{"substance": "Str enolase 137/363–1 (ΔK435) (from UniProt P69949 1-434) (enzyme)", "values": [{"measurement": "Molecular Activity (2-phosphoglycerate to phosphoenolpyruvate, 20°C), taken as the amount of octamer", "setting": "[1]", "result": 4040, "unit": "min⁻¹"}, {"measurement": "stoichiometry N", "setting": "[2]", "result": 8}]}, {"substance": "Str enolase 137/363–2 (ΔK434-K435) (from UniProt P69949 1-433) (enzyme)", "values": [{"measurement": "Molecular Activity (2-phosphoglycerate to phosphoenolpyruvate, 20°C), taken as the amount of octamer", "setting": "[3]", "result": 1730, "unit": "min⁻¹"}, {"measurement": "stoichiometry N", "setting": "[4]", "result": 8}]}, {"substance": "Str enolase 137/363–3 (ΔL433-K435) (from UniProt P69949 1-432) (enzyme)", "values": [{"measurement": "Molecular Activity (2-phosphoglycerate to phosphoenolpyruvate, 20°C), taken as the amount of octamer", "setting": "[5]", "result": 497, "unit": "min⁻¹"}, {"measurement": "stoichiometry N", "setting": "[6]", "result": 8}]}, {"substance": "Str enolase 137/363–4 (ΔN432-K435) (from UniProt P69949 1-431) (enzyme)", "values": [{"measurement": "Molecular Activity (2-phosphoglycerate to phosphoenolpyruvate, 20°C), taken as the amount of octamer", "setting": "[7]", "result": 27, "unit": "min⁻¹"}, {"measurement": "stoichiometry N", "setting": "[8]", "result": 8}]}, {"substance": "Str enolase 137/363–5 (ΔY431-K435) (from UniProt P69949 1-430) (enzyme)", "values": [{"measurement": "Molecular Activity (2-phosphoglycerate to phosphoenolpyruvate, 20°C), taken as the amount of octamer", "setting": "[9]", "result": 0.36, "unit": "min⁻¹"}, {"measurement": "stoichiometry N", "setting": "[10]", "result": 8}]}, {"substance": "Str enolase 137/363–6 (ΔF430-K435) (from UniProt P69949 1-429) (enzyme)", "values": [{"measurement": "total amount of octamer estimated from activity assays, as percent of the concentration of the Str enolase DB", "setting": "[11]", "result": 0.0002, "unit": "%"}, {"measurement": "Molecular Activity (2-phosphoglycerate to phosphoenolpyruvate, 20°C), taken as the amount of octamer", "setting": "[12]", "result": 0.22, "unit": "min⁻¹"}]}, {"substance": "Str enolase 137/363–8 (ΔK428-K435) (from UniProt P69949 1-427) (enzyme)", "values": [{"measurement": "total amount of octamer estimated from activity assays, as percent of the concentration of the Str enolase DB", "setting": "[13]", "result": 0.0002, "unit": "%"}, {"measurement": "Molecular Activity (2-phosphoglycerate to phosphoenolpyruvate, 20°C), taken as the amount of octamer", "setting": "[14]", "result": 0.08, "unit": "min⁻¹"}]}, {"substance": "Str enolase DB E363G (from UniProt P69949 1-435) (enzyme)", "values": [{"measurement": "Molecular Activity (2-phosphoglycerate to phosphoenolpyruvate, 20°C), taken as the amount of octamer", "setting": "[15]", "result": 8460, "unit": "min⁻¹"}, {"measurement": "stoichiometry N", "setting": "[16]", "result": 8}]}, {"substance": "Str enolase DB F137L (from UniProt P69949 1-435) (enzyme)", "values": [{"measurement": "Molecular Activity (2-phosphoglycerate to phosphoenolpyruvate, 20°C), taken as the amount of octamer", "setting": "[17]", "result": 7160, "unit": "min⁻¹"}, {"measurement": "stoichiometry N", "setting": "[18]", "result": 8}]}, {"substance": "enolase from Streptococcus pyogenes F137L/E363G (from UniProt P69949 1-435) (enzyme)", "values": [{"measurement": "Molecular Activity (2-phosphoglycerate to phosphoenolpyruvate, 20°C), taken as the amount of octamer", "setting": "[19]", "result": 5250, "unit": "min⁻¹"}, {"measurement": "stoichiometry N", "setting": "[20]", "result": 8}]}]}
